According to paper PMC11364024, “Binding structures of SERF1a with NT17-polyQ peptides of huntingtin exon 1 revealed by SEC-SWAXS, NMR and molecular simulation” (IUCrJ, 2024):
Where a chain is given by its changes, count along the chain named. Blank lines part the entries; values can stand above or below the binder they belong to.

Assays:
[1] = target: the molecule itself; experiment: SEC-SWAXS (size-exclusion column with small- and wide-angle X-ray scattering, UV-Vis absorption and dRI); single-component samples (SERF1a 4.1 mg/ml; Htt-1 10 mg/ml injected, diluted ca. 2-4 fold on the column); sodium phosphate buffer pH 7.4; 283 K; aggregation number from zero-angle intensity I0 and the concentration from optical data
[2] = target: T1, human small EDRK-rich factor 1a (SERF1a) (human); experiment: SEC-SWAXS (size-exclusion column with small- and wide-angle X-ray scattering, UV-Vis absorption and dRI); mixtures of SERF1a with NT17 or with Htt-3 at 1:2 molar ratio, eluted together; sodium phosphate buffer pH 7.4; 283 K; composition of the complex from I0, UV-Vis absorption at 214 nm and dRI over the elution peak; details: both partners purified
T1 construct: source: purified from the human SERF1a gene as reported previously (Tsai et al., 2023)
T1 chain: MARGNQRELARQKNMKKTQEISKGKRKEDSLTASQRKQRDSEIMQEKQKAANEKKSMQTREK

B1: Htt-1 (NT17-polyQ peptide of 33 amino acids with four leucines in the polyQ region) (peptide)
peptide: MATLEKLMKAFESLKSFLQQLQQQLQQLQQQYK
notes: huntingtin exon 1: NT17 followed by a 14-residue polyQ region in which four leucines replace the residues of position a/d to enhance alpha-helix formation; two C-terminal residues added after the polyQ region; not of huntingtin; source: synthetic peptide (peptide synthesis core, Genomics Research Center, Academia Sinica)
stoichiometry N [1]: 2

stoichiometry N [2]: ~1 Htt-3 per SERF1a
B2: Htt-3 (NT17-polyQ peptide of 33 amino acids with four prolines in the polyQ region) (peptide)
peptide: B1 peptide with L18P, L21P, L25P, L28P
notes: huntingtin exon 1: NT17 followed by a 14-residue polyQ region in which the positions a/d are substituted by four prolines to suppress alpha-helix formation; two C-terminal residues added after the polyQ region; not of huntingtin; source: synthetic peptide (peptide synthesis core, Genomics Research Center, Academia Sinica)

stoichiometry N [2]: ~2 NT17 per SERF1a
B3: NT17 (the N-terminal first 17 amino acids of the Httex1 protein) (peptide)
peptide: MATLEKLMKAFESLKSF
notes: huntingtin exon 1 (Httex1), N-terminal first 17 amino acids; also called NT17 fragment; source: synthetic peptide (peptide synthesis core, Genomics Research Center, Academia Sinica)
